One substance from patent US20260217835A1 can be followed below.

The target of this assay is IgG4 Fc fragment SEQ ID NO: 102, no modification (Homo sapiens (Human)) [IgG part: P01861]. The experiment in a line: SEC peak area ratio; coexpression of full-length heavy chain, light chain and Fc fragment.
IgG4 Fc fragment SEQ ID NO: 102, no modification (Homo sapiens (Human)) [IgG part: P01861], sequence (P01861 other isoform, or with tags, fused parts or gaps limits assumed): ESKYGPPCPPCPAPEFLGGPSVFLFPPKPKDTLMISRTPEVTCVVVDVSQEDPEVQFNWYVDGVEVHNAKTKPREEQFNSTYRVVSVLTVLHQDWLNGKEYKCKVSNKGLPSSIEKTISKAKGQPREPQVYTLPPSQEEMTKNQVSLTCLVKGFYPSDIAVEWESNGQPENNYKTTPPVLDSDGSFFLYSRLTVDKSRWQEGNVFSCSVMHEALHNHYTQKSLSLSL

As for “IgG4 full-length heavy chain SEQ ID NO: 110 with Q347E/S354Y/T366Y/Y407T, expressed with light chain SEQ ID NO: 61 (antibody)”, the Heteromultimer (%) amounted to 4.6%.
